Experimental findings from patent US20020031803A1 are described below.

One assay deals with human p107 (human) (UniProt P28749).
The target of a further assay is human RB protein (human) (UniProt P06400).
UniProt P06400, sequence (P06400 whole entry): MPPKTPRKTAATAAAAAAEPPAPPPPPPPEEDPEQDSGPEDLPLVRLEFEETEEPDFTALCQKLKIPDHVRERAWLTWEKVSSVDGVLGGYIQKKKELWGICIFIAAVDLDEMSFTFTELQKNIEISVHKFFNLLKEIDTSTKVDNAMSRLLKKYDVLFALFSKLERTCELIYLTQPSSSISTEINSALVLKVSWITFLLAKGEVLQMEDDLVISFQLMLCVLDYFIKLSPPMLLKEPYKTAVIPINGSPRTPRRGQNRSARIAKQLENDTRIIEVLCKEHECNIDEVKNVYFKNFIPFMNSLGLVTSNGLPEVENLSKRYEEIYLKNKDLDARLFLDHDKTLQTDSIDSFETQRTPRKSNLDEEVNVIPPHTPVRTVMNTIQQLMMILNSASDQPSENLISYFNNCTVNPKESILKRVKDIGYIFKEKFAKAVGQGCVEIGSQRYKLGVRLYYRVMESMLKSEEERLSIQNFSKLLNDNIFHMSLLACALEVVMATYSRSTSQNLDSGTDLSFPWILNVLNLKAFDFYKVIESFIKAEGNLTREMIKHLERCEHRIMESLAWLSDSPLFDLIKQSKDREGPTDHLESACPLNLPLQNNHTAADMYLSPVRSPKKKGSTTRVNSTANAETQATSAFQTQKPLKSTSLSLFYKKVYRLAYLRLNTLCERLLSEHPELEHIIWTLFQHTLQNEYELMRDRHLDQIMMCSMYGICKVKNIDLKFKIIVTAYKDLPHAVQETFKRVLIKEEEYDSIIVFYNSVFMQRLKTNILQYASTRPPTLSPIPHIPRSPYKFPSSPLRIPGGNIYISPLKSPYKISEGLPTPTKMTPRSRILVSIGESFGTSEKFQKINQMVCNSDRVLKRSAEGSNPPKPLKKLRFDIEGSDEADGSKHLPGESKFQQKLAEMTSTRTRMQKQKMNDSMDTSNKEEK

UniProt P28749, sequence (P28749 whole entry): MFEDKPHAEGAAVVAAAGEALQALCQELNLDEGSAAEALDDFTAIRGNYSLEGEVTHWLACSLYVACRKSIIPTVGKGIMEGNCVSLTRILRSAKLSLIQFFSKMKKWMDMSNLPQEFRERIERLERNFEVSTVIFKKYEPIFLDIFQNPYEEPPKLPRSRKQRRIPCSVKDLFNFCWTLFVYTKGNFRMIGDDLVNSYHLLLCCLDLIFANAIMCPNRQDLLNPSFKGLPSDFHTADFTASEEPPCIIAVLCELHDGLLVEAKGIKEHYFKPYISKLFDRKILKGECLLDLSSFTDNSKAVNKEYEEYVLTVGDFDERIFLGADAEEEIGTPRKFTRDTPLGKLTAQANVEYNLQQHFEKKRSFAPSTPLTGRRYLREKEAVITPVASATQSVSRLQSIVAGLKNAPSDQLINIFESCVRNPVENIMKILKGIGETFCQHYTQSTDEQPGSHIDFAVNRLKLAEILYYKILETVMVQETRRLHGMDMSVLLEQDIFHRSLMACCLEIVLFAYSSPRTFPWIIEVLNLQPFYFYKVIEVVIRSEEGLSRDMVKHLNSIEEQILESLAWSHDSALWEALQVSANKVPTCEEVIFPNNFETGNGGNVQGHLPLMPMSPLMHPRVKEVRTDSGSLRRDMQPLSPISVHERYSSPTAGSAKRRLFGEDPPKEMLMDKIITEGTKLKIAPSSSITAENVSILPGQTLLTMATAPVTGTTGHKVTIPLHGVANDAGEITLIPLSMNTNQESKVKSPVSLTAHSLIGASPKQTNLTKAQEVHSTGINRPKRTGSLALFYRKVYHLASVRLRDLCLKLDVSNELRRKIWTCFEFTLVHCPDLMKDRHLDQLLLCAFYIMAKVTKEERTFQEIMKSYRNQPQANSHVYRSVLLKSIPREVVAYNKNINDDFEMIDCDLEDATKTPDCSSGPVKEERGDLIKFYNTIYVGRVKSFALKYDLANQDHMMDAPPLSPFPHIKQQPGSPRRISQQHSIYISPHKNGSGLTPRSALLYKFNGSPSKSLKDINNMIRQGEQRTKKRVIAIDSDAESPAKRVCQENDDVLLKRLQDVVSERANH

Regarding “107-T mutant SV40 large T antigen (lysine for glutamic acid at codon 107) (from UniProt P03070 1-708) (other; other documents disagree on this pair)”, the Observed signal compared to T, % with human p107 (human) was 0%; with human RB protein (human), 0.03%.

Consider “wild-type SV40 large T antigen (from UniProt P03070 1-708) (other; other documents disagree on this pair)”, for which the Observed signal compared to T, % in the assay with human p107 (human) and with human RB protein (human) was 100% each time.
